{"source": "patent US20100092974A1", "about": "“METHODS FOR SCREENING FOR MODULATORS OF CCRL2” (The Board of Trustees of the Leland Stanford Junior …, priority 2008, published 2010)", "key": {"mCRTH2": {"target": "T1, mCRTH2 (Mus musculus, UniProt Q9Z2J6)", "T1 construct": "The coding regions of mCCRL2, huCCRL2, mCRTH2, and huCCR10 were amplified from genomic DNA; expressed in transfected cells", "T1 sequence (Q9Z2J6 1-382)": "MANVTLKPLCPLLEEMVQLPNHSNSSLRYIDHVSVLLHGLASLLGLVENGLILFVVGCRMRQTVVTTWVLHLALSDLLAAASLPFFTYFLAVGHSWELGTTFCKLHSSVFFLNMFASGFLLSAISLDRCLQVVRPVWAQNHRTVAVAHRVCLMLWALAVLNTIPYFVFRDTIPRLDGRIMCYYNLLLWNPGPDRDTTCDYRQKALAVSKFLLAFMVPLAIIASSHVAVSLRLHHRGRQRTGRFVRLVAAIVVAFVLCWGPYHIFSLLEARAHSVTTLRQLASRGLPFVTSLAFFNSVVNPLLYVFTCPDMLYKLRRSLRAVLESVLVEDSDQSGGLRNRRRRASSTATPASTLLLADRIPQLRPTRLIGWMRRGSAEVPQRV", "experiment": "radioligand binding to untransfected or mCRTH2-HA-transfected cells", "conditions": "data not shown"}, "mCCRL2 [1]": {"target": "T2, mCCRL2 (Mus musculus, UniProt O35457)", "T2 construct": "The coding regions of mCCRL2, huCCRL2, mCRTH2, and huCCR10 were amplified from genomic DNA; expressed in transfected cells", "T2 sequence (O35457 1-360)": "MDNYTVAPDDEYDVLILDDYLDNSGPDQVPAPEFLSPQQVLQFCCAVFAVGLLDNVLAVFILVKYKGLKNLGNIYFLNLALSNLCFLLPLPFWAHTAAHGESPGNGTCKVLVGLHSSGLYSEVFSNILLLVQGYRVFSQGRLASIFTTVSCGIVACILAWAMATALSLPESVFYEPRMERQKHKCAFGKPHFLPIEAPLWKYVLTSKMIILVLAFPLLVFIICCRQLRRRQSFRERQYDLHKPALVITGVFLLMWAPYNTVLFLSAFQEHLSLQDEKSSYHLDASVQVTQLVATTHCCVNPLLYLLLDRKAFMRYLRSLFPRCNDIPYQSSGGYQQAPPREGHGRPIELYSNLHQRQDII", "experiment": "immunofluorescence-based chemerin-binding assay, mCCRL2-HA L1.2", "conditions": "read-out: EC50, untagged chemerin vs His8-tagged chemerin binding; 10 nM His8-tagged serum form chemerin, 30 min on ice, anti-His6 PE"}, "[2]": {"system": "mouse peritoneal mast cells", "experiment": "immunofluorescence chemerin binding to peritoneal mast cells (WT or CCRL2 KO)"}, "[3]": {"system": "mouse peritoneal mast cells", "experiment": "intracellular calcium mobilization, freshly isolated peritoneal mast cells", "type": "cell-based", "conditions": "1000 nM chemerin, 100 nM ATP", "method": "Chemoattractant-stimulated Ca^2+-mobilization was performed following Alliance for Cell Signaling protocol ID PP00000210. Cells (3×10^6/mL) were loaded with 4 μM Fluo4-AM and 0.16% Pluronic acid F-127 (Molecular Probes) in modified Iscove's medium (Iscove's medium with 1% heat inactivated bovine calf serum and 2 mM L-glutamine, Invitrogen) for 30 minutes at 37° C. The samples were mixed every 10 minutes during loading, washed once, resuspended at up to 2×10^6/mL in the same buffer, and allowed to rest in the dark for 30 minutes at room temperature. Chemoattractant-stimulated change in Ca^2+-sensitive fluorescence of Fluo-4 was measured over real-time with a FACsScan flow cytometer and CellQuest software (BD Biosciences) at room temperature under constant stirring (500 rpm). Fluorescent data were acquired continuously up to 1024 seconds at 1-second intervals. The samples were analyzed for 45 seconds to establish basal state, removed from the nozzle to add the stimuli, and then returned to the nozzle. Mean channel fluorescence over time was analyzed with FlowJo (TreeStar, Ashland, Oreg., USA) software. […] 500 μl of these chemerin-loaded cells were added to mCMKLR1/L1.2 cells loaded with Fluo4-AM, and calcium mobilization was evaluated."}, "mCMKLR1": {"target": "T3, mCMKLR1 (Mus musculus, UniProt P97468)", "T3 construct": "expressed in transfected cells; host or cells: L1.2 mouse pre-B lymphoma cells", "T3 sequence (P97468 1-371)": "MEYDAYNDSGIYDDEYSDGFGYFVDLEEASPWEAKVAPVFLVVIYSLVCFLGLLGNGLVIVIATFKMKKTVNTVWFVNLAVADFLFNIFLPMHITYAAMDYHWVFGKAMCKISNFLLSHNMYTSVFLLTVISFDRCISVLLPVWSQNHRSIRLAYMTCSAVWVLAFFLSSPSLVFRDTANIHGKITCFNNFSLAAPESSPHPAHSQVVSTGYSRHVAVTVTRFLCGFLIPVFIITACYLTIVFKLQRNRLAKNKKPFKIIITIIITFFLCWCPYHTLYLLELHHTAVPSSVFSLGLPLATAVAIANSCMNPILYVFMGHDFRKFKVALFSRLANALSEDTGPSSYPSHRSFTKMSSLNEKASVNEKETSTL", "experiment": "receptor internalization assay, mCMKLR1-HA L1.2", "type": "cell-based", "conditions": "100 nM chemerin", "method": "(§1) The cells were then washed with 200 μl PBS and stained with mouse anti-HA (Covance, Inc) or mIgG1 isotype control, followed by staining with secondary anti-mouse IgG1 PE, fixed, and analyzed by flow cytometry."}, "mCCRL2 [4]": {"target": "T2, mCCRL2", "experiment": "receptor internalization assay, mCCRL2-HA L1.2", "type": "cell-based", "conditions": "100 nM chemerin, 15 min", "method": "as §1"}, "mCCRL2 [5]": {"target": "T2, mCCRL2", "experiment": "chemerin internalization assay, mCCRL2-HA/L1.2 cells", "type": "cell-based", "conditions": "10 nM His8-tagged serum form chemerin", "method": "The primary cells were also stained with F4/80 and c-kit mAbs. Secondary anti-His6 PE was added to the cells and incubated for 30 minutes on ice. […] The cells were incubated for 5 minutes on ice with either PBS or acid wash buffer (0.2 M acetic acid, 0.5 M NaCl), and then analyzed by flow cytometry. Mast cells were identified by gating on SSC^high F4/80^− c-kit^+ cells."}}, "data": [{"substance": "chemerin: protein ligand for signaling receptor CMKLR1; serum form human chemerin expressed in baculovirus-infected insect cells, His8-tag removed", "values": [{"measurement": "radiolabeled chemerin binding", "setting": "mCRTH2", "value": "no binding was detected"}, {"measurement": "EC50", "setting": "mCCRL2 [1]", "value": 45, "unit": "nM"}, {"measurement": "binding to freshly isolated peritoneal mast cells", "setting": "[2]; WT mice", "value": "bound"}, {"measurement": "preference for binding of the pro-form vs. the active serum form", "setting": "[2]; WT peritoneal mast cells", "value": "no obvious preference"}, {"measurement": "binding to peritoneal mast cells", "setting": "[2]; mCCRL2 KO mice", "value": "did not bind"}, {"measurement": "intracellular calcium mobilization", "setting": "[3]", "value": "did not trigger"}, {"measurement": "time to ligand-induced receptor internalization", "setting": "mCMKLR1", "value": "≤ 15", "unit": "min"}, {"measurement": "ligand-induced receptor internalization", "setting": "mCCRL2 [4]", "value": "failed to internalize"}, {"measurement": "acid resistant cell-associated chemerin", "setting": "mCCRL2 [5]; 5 min at 37° C.", "value": "essentially no"}, {"measurement": "acid resistant cell-associated chemerin", "setting": "mCCRL2 [5]; 60 min at 37° C.", "value": "very little"}]}]}
